Test results published in article PMC6393291 (Nucleic Acids Research, 2018).

Target: T1, MSL2-FLAG (D. melanogaster, UniProt P50534 1-773)
T1 sequence (looked up): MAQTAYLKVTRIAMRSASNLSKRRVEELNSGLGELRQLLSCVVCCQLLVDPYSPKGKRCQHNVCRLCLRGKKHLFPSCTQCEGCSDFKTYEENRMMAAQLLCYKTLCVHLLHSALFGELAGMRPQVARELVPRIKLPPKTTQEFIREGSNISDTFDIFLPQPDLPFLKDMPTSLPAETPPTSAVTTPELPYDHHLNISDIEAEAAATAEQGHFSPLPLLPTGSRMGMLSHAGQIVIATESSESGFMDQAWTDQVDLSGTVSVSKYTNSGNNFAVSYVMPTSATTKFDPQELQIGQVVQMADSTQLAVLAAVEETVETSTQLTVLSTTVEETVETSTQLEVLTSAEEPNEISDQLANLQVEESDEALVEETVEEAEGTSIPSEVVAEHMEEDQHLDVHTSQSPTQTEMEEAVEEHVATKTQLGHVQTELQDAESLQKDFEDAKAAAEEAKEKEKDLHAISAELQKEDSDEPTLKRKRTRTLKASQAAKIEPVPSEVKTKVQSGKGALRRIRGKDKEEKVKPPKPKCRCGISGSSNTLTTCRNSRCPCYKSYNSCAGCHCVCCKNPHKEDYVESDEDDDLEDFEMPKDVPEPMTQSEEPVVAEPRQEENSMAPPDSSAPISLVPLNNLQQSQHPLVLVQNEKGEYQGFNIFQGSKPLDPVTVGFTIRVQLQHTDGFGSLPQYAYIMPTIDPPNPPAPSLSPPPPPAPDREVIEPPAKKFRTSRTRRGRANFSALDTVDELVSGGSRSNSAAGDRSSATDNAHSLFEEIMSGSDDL
Assay: co-IP

B1: CLAMP-FLAG (natural protein, D. melanogaster, UniProt Q9V9N4 1-561, looked up)
chain: MEDLTKNIIFTNAINGQPATIQYQTADGTILKQPKIEGQKTEQQPTFYYTTNGNGGTVNLAQLATTDDNKTCYIAQPVGGYNYALVNGMPLNQGAALGIATVDAQGRIQIVNQNKPIAANTISNISFKCDVCSDMFPHLALLNAHKRMHTDGEQQQQQQHNAQAGGDSIAVVSAQGLVQAQNIIGNGQMGQIQIVSSDTLEPVQQSVMQQQQHESKASKCINCGSSMLQQSKRKGPKQVRCESCMQAEQTAQQQQQLFVAQDGQMAHPVQIISTTPQAQAQLQQIVAAQTGGTTPKREASSGSGHHPVKKRNSQQMTKCQKCNGSGVVLVGQHSHASHSGVGGSVKQSVTVKTENPSKPFSCNICGGLFSRYSSLWSHKKLHSGEKNYKCSICGLAFAKAVYLKNHARIHTGEKPYKCQTCGMQFSQSPHLKNHERTHSGERPYVCGVCDKGFARHATLWNHRRIHTGEKPYKCEICGSAFSQAAHLKNHAKVHSGEKPYKCEICSAAFADRFALKRHRGIHQKYGQTAPRQTSSDGMIVHKQEIPDMEDEAQQEVIIGGL
- binding result: binds
